Source: publication PMC7210009
Where two headings read alike, the source gives them in different places.

For “PFKL (phosphofructokinase, liver isoform): K272R”, the degradation_or_half_life (ubiquitination at K272) was “decreases”.

For “PFKP (phosphofructokinase, platelet isoform): AKT inhibitor X (10 μM, 15 hrs)”, the expression_or_secretion (phosphorylation at S386) was “no change”.

With “PFKP (phosphofructokinase, platelet isoform): K281R” the degradation_or_half_life (ubiquitination at K281) was “decreases”.

For “PFKP (phosphofructokinase, platelet isoform): S386A”, the degradation_or_half_life (phosphorylation at S386) was “no change”.
